Earlier results in US20160296600A1, “Relaxin Prodrugs” (ASCENDIS PHARMA RELAXIN DIVISION A/S, priority 2013, published 2016).

Settings: humans, intravenous administration

For “Relaxin: Mature human relaxin, hormonal peptide of approximately 6000 daltons; A-chain SEQ ID NO:1, B-chain SEQ ID NO:2”, the half-life is listed as “less than 10 minutes”.
